Measured values published in US20230002488A1 (SYSTIMMUNE, published 2023).

Tests used:
human 4-1BB = molecular target: T1, human 4-1BB (human, UniProt Q07011 24-186); test: BLI (Octet), GNC on AHC sensor, 100 nM antigen as analyte, 1:1 fit
T1 construct: Bought antigen; construct not described

human PD-L1 = molecular target: T2, human PD-L1 (human, UniProt Q9NZQ7 19-238); test: as above
T2 construct: Bought antigen; construct not described

human CD19 [1] = molecular target: T3, human CD19 (human, UniProt P15391 20-291); test: as above
T3 sequence (looked up): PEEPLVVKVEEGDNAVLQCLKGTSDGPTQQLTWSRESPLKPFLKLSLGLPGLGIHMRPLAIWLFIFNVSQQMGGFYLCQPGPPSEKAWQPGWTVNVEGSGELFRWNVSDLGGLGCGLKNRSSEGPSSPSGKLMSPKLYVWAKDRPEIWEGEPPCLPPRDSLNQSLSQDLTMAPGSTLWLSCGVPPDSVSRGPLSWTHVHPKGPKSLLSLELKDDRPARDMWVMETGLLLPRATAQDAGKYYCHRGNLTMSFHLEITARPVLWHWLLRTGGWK

HER3 on BxPC3 cells = HER3 on BxPC3 cells (human, UniProt P21860 20-1342); test: cell-based or functional assay
human CD19 [2] = molecular target: T3, human CD19; test: BLI (Octet), GNC on AHC sensor; strong binding, dissociation too slow to quantify KD
human EGFR = molecular target: T4, human EGFR (human, UniProt P00533 25-645); test: BLI (Octet), GNC on AHC sensor, His-tagged human EGFR as analyte, global 1:1 fit
T4 construct: also called huEGFR; His-tagged human EGFR

human ROR1 = human ROR1 (human, UniProt Q01973 30-403, limits assumed); test: BLI (Octet), GNC on AHC sensor, 100 nM antigen as analyte, 1:1 fit
EGFRvIII = EGFRvIII (human, UniProt P00533 25-645, limits assumed); test: as above
SI-49P7 = molecular target: T5, SI-49P7; test: BLI (Octet), biotinylated MICA on SA tips, GNC protein 0-100 nM as analyte
T5 construct: Antibody-like penta-GNC protein; NKG2D at D2, 4-1BBL trimer at D4; D1 CD3, D3 PD-L1, D6 CD19; also called αCD3×NKG2D×αPD-L1×41BBL trimer×αCD19

human ROR1, sequence (Q01973 30-403 limits assumed): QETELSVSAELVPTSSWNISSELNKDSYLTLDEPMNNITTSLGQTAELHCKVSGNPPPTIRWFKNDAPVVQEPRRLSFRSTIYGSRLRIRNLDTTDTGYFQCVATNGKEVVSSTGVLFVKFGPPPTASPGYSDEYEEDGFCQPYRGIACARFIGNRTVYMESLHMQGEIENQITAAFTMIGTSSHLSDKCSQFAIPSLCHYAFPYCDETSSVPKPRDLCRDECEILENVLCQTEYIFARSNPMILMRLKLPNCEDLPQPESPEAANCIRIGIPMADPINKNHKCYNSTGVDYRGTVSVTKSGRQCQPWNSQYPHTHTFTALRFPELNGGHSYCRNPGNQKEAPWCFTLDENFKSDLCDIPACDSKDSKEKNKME

B1: SI-55H11 (antibody, human IgG1, kappa)
heavy: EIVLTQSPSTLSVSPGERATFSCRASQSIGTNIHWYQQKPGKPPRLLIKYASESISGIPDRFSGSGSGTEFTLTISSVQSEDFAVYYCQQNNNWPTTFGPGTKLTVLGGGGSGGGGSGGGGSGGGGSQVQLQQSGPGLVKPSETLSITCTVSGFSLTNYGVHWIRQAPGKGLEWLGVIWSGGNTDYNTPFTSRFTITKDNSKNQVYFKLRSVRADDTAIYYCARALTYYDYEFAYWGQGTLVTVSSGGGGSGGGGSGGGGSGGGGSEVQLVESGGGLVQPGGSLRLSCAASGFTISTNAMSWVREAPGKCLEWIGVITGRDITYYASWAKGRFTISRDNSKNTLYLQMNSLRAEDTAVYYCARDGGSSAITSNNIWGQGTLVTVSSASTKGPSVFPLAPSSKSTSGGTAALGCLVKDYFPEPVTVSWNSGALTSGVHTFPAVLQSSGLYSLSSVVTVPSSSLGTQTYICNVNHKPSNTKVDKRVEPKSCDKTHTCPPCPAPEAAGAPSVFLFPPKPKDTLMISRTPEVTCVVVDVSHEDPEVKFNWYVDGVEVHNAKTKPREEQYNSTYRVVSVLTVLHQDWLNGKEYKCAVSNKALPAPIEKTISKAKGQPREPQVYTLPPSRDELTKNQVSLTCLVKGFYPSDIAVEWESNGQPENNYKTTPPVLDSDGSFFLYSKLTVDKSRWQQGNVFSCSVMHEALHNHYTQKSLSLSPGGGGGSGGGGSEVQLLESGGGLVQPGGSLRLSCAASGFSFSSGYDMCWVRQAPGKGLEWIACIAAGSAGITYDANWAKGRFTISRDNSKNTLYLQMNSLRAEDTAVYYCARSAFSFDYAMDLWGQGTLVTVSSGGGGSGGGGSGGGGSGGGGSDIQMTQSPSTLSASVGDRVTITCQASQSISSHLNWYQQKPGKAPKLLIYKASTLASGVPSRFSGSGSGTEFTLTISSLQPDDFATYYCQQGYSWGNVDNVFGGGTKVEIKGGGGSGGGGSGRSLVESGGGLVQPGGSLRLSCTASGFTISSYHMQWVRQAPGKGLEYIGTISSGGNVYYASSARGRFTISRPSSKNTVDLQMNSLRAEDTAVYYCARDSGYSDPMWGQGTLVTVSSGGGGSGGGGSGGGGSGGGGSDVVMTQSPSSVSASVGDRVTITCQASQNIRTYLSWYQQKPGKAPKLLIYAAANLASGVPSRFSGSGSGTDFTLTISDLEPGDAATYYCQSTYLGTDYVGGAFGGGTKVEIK
light: ENVLTQSPASLSASPGERVTITCSASSSVSYMHWYQQKPGQAPKLWIYDTSKLASGVPSRFSGSGSGNDHTLTISSMEPEDFATYYCFQGSVYPFTFGQGTKVTVLGGGGSGGGGSGGGGSGGGGSQVTLKESGPGLVQPGQTLSLTCAFSGFSLSTSGMGVGWIRQPPGKGLEWLAHIWWDDDKRYNPALKSRLTISKDTSKNQVYLQMNSLDAEDTAVYYCARMELWSYYFDYWGQGTLVTVSSGGGGSGGGGSDVVMTQSPSTLSASVGDRVTINCQASESISSWLAWYQQKPGKAPKLLIYEASKLASGVPSRFSGSGSGTEFTLTISSLQPDDFATYYCQGYFYFISRTYVNSFGCGTKVEIKRTVAAPSVFIFPPSDEQLKSGTASVVCLLNNFYPREAKVQWKVDNALQSGNSQESVTEQDSKDSTYSLSSTLTLSKADYEKHKVYACEVTHQGLSSPVTKSFNRGECGGGGSGGGGSGGGGSQSALTQPASVSGSPGQSITISCTGTSSDVGGYNFVSWYQQHPGKAPKLMIYDVSDRPSGVSDRFSGSKSGNTASLIISGLQADDEADYYCSSYGSSSTHVIFGGGTKVTVLGGGGSGGGGSGGGGSGGGGSQVQLQESGGGLVKPGGSLSLSCAASGFTFSSYWMSWVRQAPGKGLEWVANINRDGSASYYVDSVKGRFTISRDDAKNSLYLQMNSLRAEDTAVYYCARDRGVGYFDLWGRGTLVTVSS
notes: also called hexa-GNC antibody SI-55H11
Kd (human 4-1BB): 4.91 nM | Kd (human PD-L1): 0.737 nM | Kd (human CD19 [1]): 6.8 nM | TDCC EC50 (pM), BxPC3 target cells (HER3 on BxPC3 cells): 0.0939 pM

B2: SI-55H12 (antibody, human IgG1, kappa)
heavy: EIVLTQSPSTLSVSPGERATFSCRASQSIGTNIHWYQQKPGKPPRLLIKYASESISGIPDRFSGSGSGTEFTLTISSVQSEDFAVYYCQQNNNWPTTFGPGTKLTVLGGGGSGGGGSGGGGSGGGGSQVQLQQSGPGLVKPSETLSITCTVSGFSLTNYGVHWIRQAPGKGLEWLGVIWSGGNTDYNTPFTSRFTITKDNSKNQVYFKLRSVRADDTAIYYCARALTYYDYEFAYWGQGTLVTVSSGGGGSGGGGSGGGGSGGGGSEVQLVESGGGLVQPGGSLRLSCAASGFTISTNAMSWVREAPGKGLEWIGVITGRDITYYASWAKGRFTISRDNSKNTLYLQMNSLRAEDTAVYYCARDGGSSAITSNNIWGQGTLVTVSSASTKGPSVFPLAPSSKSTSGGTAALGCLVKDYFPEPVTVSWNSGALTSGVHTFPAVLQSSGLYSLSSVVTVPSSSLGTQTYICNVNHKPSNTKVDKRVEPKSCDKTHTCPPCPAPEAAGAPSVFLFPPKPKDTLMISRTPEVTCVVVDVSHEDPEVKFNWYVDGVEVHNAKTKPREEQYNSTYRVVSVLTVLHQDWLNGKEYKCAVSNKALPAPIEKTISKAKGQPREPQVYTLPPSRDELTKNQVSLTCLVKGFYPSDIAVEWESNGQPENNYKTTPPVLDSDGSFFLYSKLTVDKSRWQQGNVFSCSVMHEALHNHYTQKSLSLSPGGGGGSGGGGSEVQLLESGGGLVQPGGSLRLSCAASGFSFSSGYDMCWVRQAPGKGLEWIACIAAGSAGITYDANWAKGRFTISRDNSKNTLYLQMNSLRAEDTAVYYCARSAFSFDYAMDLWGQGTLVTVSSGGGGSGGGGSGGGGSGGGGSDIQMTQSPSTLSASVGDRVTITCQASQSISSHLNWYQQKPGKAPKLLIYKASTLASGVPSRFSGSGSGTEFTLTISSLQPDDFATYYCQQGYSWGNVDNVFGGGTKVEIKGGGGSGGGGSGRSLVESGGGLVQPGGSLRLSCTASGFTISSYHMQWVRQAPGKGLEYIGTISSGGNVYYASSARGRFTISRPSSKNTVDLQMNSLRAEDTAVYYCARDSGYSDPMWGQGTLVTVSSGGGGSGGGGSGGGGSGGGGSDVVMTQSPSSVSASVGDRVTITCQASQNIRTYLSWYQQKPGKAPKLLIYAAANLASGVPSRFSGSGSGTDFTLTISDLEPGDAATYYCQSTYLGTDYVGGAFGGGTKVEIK
light: ENVLTQSPASLSASPGERVTITCSASSSVSYMHWYQQKPGQAPKLWIYDTSKLASGVPSRFSGSGSGNDHTLTISSMEPEDFATYYCFQGSVYPFTFGQGTKVTVLGGGGSGGGGSGGGGSGGGGSQVTLKESGPGLVQPGQTLSLTCAFSGFSLSTSGMGVGWIRQPPGKGLEWLAHIWWDDDKRYNPALKSRLTISKDTSKNQVYLQMNSLDAEDTAVYYCARMELWSYYFDYWGQGTLVTVSSGGGGSGGGGSDVVMTQSPSTLSASVGDRVTINCQASESISSWLAWYQQKPGKAPKLLIYEASKLASGVPSRFSGSGSGTEFTLTISSLQPDDFATYYCQGYFYFISRTYVNSFGGGTKVEIKRTVAAPSVFIFPPSDEQLKSGTASVVCLLNNFYPREAKVQWKVDNALQSGNSQESVTEQDSKDSTYSLSSTLTLSKADYEKHKVYACEVTHQGLSSPVTKSFNRGECGGGGSGGGGSGGGGSQSALTQPASVSGSPGQSITISCTGTSSDVGGYNFVSWYQQHPGKAPKLMIYDVSDRPSGVSDRFSGSKSGNTASLIISGLQADDEADYYCSSYGSSSTHVIFGGGTKVTVLGGGGSGGGGSGGGGSGGGGSQVQLQESGGGLVKPGGSLSLSCAASGFTFSSYWMSWVRQAPGKGLEWVANINRDGSASYYVDSVKGRFTISRDDAKNSLYLQMNSLRAEDTAVYYCARDRGVGYFDLWGRGTLVTVSS
Kd (human 4-1BB): 7.87 nM | Kd (human PD-L1): 0.25 nM | binding result (human CD19 [2]): binds

B3: SI-55P3 (antibody, human IgG1, kappa)
heavy: not shown
light: ENVLTQSPASLSASPGERVTITCSASSSVSYMHWYQQKPGQAPKLWIYDTSKLASGVPSRFSGSGSGNDHTLTISSMEPEDFATYYCFQGSVYPFTFGQGTKVTVLGGGGSGGGGSGGGGSGGGGSQVTLKESGPGLVQPGQTLRLTCAFSGFSLSTSGMGVGWIRQPPGKGLEWLAHIWWDDDKRYNPALKSRLTISKDTSKNQVYLQMNSLDAEDTAVYYCARMELWSYYFDYWGQGTLVTVSSGGGGSGGGGSDPVLTQSPSSLSASVGDRVTISCQSSQSVAKNNNLAWFQQKPGQAPKLLIYSASTLAAGVPSRFSGSGSGTDFTLTISSVQPEDFATYYCSARDSGNIQSFGGGTKVEIKRTVAAPSVFIFPPSDEQLKSGTASVVCLLNNFYPREAKVQWKVDNALQSGNSQESVTEQDSKDSTYSLSSTLTLSKADYEKHKVYACEVTHQGLSSPVTKSFNRGEC
notes: Penta-specific: D1 humanized anti-EGFR H1 scFv, D2 CD3, D3 PD-L1, D4 4-1BB, D6 CD19
Kd (human EGFR): 18.1 nM

B4: SI-79P2 (antibody, human IgG1, kappa)
heavy: not shown
light: ENVLTQSPASLSASPGERVTITCSASSSVSYMHWYQQKPGQAPKLWIYDTSKLASGVPSRFSGSGSGNDHTLTISSMEPEDFATYYCFQGSVYPFTFGQGTKVTVLGGGGSGGGGSGGGGSGGGGSQVTLKESGPGLVQPGQTLRLTCAFSGFSLSTSGMGVGWIRQPPGKGLEWLAHIWWDDDKRYNPALKSRLTISKDTSKNQVYLQMNSLDAEDTAVYYCARMELWSYYFDYWGQGTLVTVSSGGGGSGGGGSDPVLTQSPSSLSASVGDRVTISCQSSQSVAKNNNLAWFQQKPGQAPKLLIYSASTLAAGVPSRFSGSGSGTDFTLTISSVQPEDFATYYCSARDSGNIQSFGGGTKVEIKRTVAAPSVFIFPPSDEQLKSGTASVVCLLNNFYPREAKVQWKVDNALQSGNSQESVTEQDSKDSTYSLSSTLTLSKADYEKHKVYACEVTHQGLSSPVTKSFNRGEC
notes: Penta-specific: D1 humanized anti-EGFR H4 scFv, D2 CD3, D3 PD-L1, D4 4-1BB, D6 CD19
Kd (human EGFR): 4.3 nM

B5: SI-35E20 (antibody)
chain 1: not shown
chain 2: AYDMTQSPSSVSASVGDRVTIKCQASEDIYSFLAWYQQKPGKAPKLLIHSASSLASGVPSRFSGSGSGTDFTLTISSLQPEDFATYYCQQGYGKNNVDNAFGGGTKVEIKRTVAAPSVFIFPPSDEQLKSGTASVVCLLNNFYPREAKVQWKVDNALQSGNSQESVTEQDSKDSTYSLSSTLTLSKADYEKHKVYACEVTHQGLSSPVTKSFNRGEC
Kd (human 4-1BB): 4.03 nM | Kd (human PD-L1): 0.379 nM | Kd (human ROR1): 0.861 nM

B6: SI-38E17 (antibody, V domains shown)
VH: EVQLVESGGGLVQPGGSLRLSCAASGFTISTNAMSWVRQAPGKGLEWIGVITGRDITYYASWAKGRFTISRDNSKNTLYLQMNSLRAEDTAVYYCARDGGSSAITSNNIWGQGTLVTVSS
VL: AIQLTQSPSSLSASVGDRVTITCRASQGISSALAWYQQKPGKAPKLLIYDASSLESGVPSRFSGSGSGTDFTLTISSLQPEDFATYYCQQFNSYPFTFGPGTKVDIK
Kd (human 4-1BB): 8.19 nM | Kd (human PD-L1): 0.524 nM | Kd (human CD19 [1]): 1.48 nM

B7: SI-39E18 (antibody)
chain 1: not shown
chain 2: DILMTQSPSSMSVSLGDTVSITCHSSQDINSNIGWLQQRPGKSFKGLIYHGTNLDDEVPSRFSGSGSGADYSLTISSLESEDFADYYCVQYAQFPWTFGGGTKLEIKRTVAAPSVFIFPPSDEQLKSGTASVVCLLNNFYPREAKVQWKVDNALQSGNSQESVTEQDSKDSTYSLSSTLTLSKADYEKHKVYACEVTHQGLSSPVTKSFNRGEC
Kd (human 4-1BB): 18.1 nM | Kd (human PD-L1): 0.421 nM | Kd (EGFRvIII): 16.4 nM

B8: SI-38P12 (antibody, human IgG1, kappa)
heavy: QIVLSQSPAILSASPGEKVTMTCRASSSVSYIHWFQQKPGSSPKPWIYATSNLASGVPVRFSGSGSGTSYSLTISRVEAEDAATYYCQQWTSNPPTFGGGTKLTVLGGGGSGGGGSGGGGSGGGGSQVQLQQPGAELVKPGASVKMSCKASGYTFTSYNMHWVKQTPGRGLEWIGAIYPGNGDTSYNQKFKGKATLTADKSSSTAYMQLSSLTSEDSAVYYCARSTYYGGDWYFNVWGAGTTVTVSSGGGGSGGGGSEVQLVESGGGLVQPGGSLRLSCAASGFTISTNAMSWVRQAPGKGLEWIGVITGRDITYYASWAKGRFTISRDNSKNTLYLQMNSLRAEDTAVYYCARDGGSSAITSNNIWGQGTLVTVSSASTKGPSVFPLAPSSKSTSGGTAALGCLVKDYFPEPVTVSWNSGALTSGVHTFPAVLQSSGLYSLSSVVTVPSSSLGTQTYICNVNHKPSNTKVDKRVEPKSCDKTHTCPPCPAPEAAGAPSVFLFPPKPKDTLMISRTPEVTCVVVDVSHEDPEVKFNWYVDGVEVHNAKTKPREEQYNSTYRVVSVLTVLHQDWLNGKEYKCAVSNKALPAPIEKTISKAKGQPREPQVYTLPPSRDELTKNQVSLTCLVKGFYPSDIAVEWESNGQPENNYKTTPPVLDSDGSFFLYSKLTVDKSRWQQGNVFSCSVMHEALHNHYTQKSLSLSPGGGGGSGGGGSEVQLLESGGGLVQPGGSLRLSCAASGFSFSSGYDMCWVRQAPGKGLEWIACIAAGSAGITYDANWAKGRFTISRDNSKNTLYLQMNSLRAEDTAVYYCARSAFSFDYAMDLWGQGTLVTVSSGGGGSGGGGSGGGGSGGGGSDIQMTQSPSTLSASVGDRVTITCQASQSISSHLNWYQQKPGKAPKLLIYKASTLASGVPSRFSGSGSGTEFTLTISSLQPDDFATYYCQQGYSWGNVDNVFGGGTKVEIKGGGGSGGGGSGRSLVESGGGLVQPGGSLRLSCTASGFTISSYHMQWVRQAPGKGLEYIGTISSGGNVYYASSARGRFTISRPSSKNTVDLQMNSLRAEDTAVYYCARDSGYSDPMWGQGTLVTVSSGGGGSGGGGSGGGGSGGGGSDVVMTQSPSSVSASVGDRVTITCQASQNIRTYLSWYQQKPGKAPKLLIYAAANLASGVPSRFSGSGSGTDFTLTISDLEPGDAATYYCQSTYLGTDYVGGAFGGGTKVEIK
light: ENVLTQSPASLSASPGERVTITCSASSSVSYMHWYQQKPGQAPKLWIYDTSKLASGVPSRFSGSGSGNDHTLTISSMEPEDFATYYCFQGSVYPFTFGQGTKVTVLGGGGSGGGGSGGGGSGGGGSQVTLKESGPGLVQPGQTLRLTCAFSGFSLSTSGMGVGWIRQPPGKGLEWLAHIWWDDDKRYNPALKSRLTISKDTSKNQVYLQMNSLDAEDTAVYYCARMELWSYYFDYWGQGTLVTVSSGGGGSGGGGSDVVMTQSPSTLSASVGDRVTINCQASESISSWLAWYQQKPGKAPKLLIYEASKLASGVPSRFSGSGSGTEFTLTISSLQPDDFATYYCQGYFYFISRTYVNSFGGGTKVEIKRTVAAPSVFIFPPSDEQLKSGTASVVCLLNNFYPREAKVQWKVDNALQSGNSQESVTEQDSKDSTYSLSSTLTLSKADYEKHKVYACEVTHQGLSSPVTKSFNRGEC
Kd (human 4-1BB): 4.85 nM | Kd (human PD-L1): 0.195 nM | Kd (human CD19 [1]): 1.11 nM

B9: SI-38P13 (antibody, human IgG1, kappa)
heavy: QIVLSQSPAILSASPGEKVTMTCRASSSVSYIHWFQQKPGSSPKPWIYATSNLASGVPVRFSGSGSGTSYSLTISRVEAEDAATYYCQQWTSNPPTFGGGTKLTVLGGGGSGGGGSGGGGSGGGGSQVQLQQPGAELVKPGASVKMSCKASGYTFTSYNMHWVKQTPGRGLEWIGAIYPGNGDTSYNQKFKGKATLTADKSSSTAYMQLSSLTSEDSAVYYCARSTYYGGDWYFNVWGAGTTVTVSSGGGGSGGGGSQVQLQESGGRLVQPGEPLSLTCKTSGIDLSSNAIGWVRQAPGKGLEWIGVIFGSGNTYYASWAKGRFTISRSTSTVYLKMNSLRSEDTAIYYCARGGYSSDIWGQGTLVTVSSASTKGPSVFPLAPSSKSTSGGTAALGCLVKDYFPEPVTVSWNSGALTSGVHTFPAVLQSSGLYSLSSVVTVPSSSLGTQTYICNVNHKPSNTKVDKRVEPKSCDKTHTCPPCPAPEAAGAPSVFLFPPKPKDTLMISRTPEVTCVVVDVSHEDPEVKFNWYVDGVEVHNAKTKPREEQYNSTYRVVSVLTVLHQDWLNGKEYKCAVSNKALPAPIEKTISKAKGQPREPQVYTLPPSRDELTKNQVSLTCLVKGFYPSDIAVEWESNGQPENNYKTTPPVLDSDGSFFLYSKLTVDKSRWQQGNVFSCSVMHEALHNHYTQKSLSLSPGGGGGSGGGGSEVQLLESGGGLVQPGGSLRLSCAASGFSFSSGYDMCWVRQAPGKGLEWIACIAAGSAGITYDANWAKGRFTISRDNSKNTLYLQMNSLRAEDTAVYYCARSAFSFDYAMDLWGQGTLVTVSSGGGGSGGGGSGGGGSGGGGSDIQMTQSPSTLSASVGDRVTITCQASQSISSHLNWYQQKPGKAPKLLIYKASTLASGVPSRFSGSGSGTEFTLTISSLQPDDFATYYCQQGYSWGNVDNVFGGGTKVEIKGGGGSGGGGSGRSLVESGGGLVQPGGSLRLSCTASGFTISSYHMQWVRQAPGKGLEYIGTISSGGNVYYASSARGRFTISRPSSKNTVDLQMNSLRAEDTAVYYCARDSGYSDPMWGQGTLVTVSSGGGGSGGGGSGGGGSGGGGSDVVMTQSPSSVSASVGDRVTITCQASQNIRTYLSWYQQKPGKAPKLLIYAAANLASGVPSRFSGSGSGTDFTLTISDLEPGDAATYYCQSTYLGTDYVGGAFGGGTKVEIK
light: DPVLTQSPSSLSASVGDRVTISCQSSQSVAKNNNLAWFQQKPGQAPKLLIYSASTLAAGVPSRFSGSGSGTDFTLTISSVQPEDFATYYCSARDSGNIQSFGGGTKVEIKRTVAAPSVFIFPPSDEQLKSGTASVVCLLNNFYPREAKVQWKVDNALQSGNSQESVTEQDSKDSTYSLSSTLTLSKADYEKHKVYACEVTHQGLSSPVTKSFNRGECGGGGSGGGGSGGGGSQVTLKESGPGLVQPGQTLRLTCAFSGFSLSTSGMGVGWIRQPPGKGLEWLAHIWWDDDKRYNPALKSRLTISKDTSKNQVYLQMNSLDAEDTAVYYCARMELWSYYFDYWGQGTLVTVSSGGGGSGGGGSGGGGSGGGGSENVLTQSPASLSASPGERVTITCSASSSVSYMHWYQQKPGQAPKLWIYDTSKLASGVPSRFSGSGSGNDHTLTISSMEPEDFATYYCFQGSVYPFTFGQGTKVTVL
Kd (human 4-1BB): 8.54 nM | Kd (human PD-L1): 0.731 nM | Kd (human CD19 [1]): 0.181 nM

B10: biotinylated human MICA (ligand, UniProt Q29983 24-308, looked up)
chain: EPHSLRYNLTVLSWDGSVQSGFLTEVHLDGQPFLRCDRQKCRAKPQGQWAEDVLGNKTWDRETRDLTGNGKDLRMTLAHIKDQKEGLHSLQEIRVCEIHEDNSTRSSQHFYYDGELFLSQNLETKEWTMPQSSRAQTLAMNVRNFLKEDAMKTKTHYHAMHADCLQELRRYLKSGVVLRRTVPPMVNVTRSEASEGNITVTCRASGFYPWNITLSWRQDGVSLSHDTQQWGDVLPDGNGTYQTWVATRICQGEEQRFTCYMEHSGNHSTHPVPSGKVLVLQSHWQ
modifications: biotinylated (site not stated)
notes: Loaded on SA tips as ligand for SI-49P6 and SI-49P7
Kd (SI-49P7): 10.7 nM
